This series in a line: yeast display, Sf9 membrane polyspecificity reagent, FACS + sequencing; frameworks hold sequencing errors. The essentials: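 Genes from sorted yeast were amplified by colony PCR, read by MiSeq 2 × 250 sequencing and filtered on CDR length. These cells carried a synthetic nanobody library in Saccharomyces cerevisiae BJ5465 and were sorted by FACS into low and high (top ~1%) gates on anti-HA and streptavidin fluorescence. Polyreactivity is labelled according to the gate of origin.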
“QVQLVESGGGLVQAGGRLRLSCAASGSNFDIYALGWYRQAPGKERELVAAIRGRGGSTYYADSVKGRFTISRDNAKNTVYLQMNSLKPEDTAVYYCAARNSYGNWRYYYWGQGTQVTVSS”: the “polyreactivity (PSR sort gate)” value is recorded as “high polyreactivity”.

For “QVQLVESGGGLVQAGGRLRLSCAASGSTFATYAMGWYRQAPGKERELVAVISRSGGSTYYADSVKGRFTISRDNAKNTVYLQMNCLKPEDTAVYYCAARPRGKYDYRGQGTQVTVSS”, the “polyreactivity (PSR sort gate)” value is “high polyreactivity”. With “QVQLVESGGGLVQAGGRLRLSCAASGSTFDYYTMGGYRQAPGKERELVAGITSGGSTNYADSVKGRFTISRDNAKNTVYLQMNSLKPADTAVYYCAARVSKYYKPYGYWGQGTQVTVSS” the entry was “high polyreactivity”. In the case of “QVQLVESGGGLVQAGGRLRLSCAASGSTFFKYDMGWYRQAPGKERELVAVITWSGGTTFYADSVKGRFTISRDNAKNTVYLQMNSLKPEDTAVYYCAADYYGYRYDYWGQGTQVTVSS”, the “polyreactivity (PSR sort gate)” value is on record as “low polyreactivity”. Next, “QVQLVESGGGLVQAGGRLRLSCAASGSTFGENVMGWYRQAPGKERELVAAISRGGSTYYADSVKGRFTISRDNAKNTVYLQMNSLKPEDTAVYYCAARTRSGPRYNYNYWGQGTQVTVSS”: “high polyreactivity”; “QVQLVESGGGLVQAGGRLRLSCAASGSTFGLNAMGRYRHAPGKEREFVASINFNDGSTYYADSVKGRFTISRDNAKNTVYLRMNSLKPEDTAVYYCAVELWWKWPFYYWGQGTQVTVSS”: “high polyreactivity”.

As to “QVQLVESGGGLVQAGGRLRLSCAASGSTFPYNAMGCYRQAPGKERELVAAITSTGDSTYYADSVKGRFTISRDKAKNTVYLQMNSLKPEDTAVYYCAARSYASPGWRYEYWGQGTQVTVSS”, the “polyreactivity (PSR sort gate)” value is on record as “low polyreactivity”. With “QVQLVESGGGLVQAGGRLRLSCAASGSTFRRNAMGWYRQAPGKERELVATISPGARTNYADSVKGRFTISRDNAKNTVYLQMNSLKPEDTAVYYCNAEFTLLYPLYDYWGQGTQVTLSS” the entry was “low polyreactivity”; with “QVQLVESGGGLVQAGGRLRLSCAASGSTFSSNAMGWYRQAPGKERELVAAITTSGGSTYYADSVKGRFTISRDNAKTTVYLQMNSLKPEDTAVYYCAADLVHAYQWSIFLYGYWGQGTQVTVSS”, “low polyreactivity”.

With “QVQLVESGGGLVQAGGRLRLSCAASGSTFVPYAMGWSRQAPGKERELVAGITWSGGRTYYADSVKGRFTISRDNAKNTVYFQLNSLKPEDTAVYYCNVEHLVYKYDGYYSRYYRLYYWGQGTHVTVSS”, the “polyreactivity (PSR sort gate)” value is reported as “low polyreactivity”.

Turning to “QVQLVESGGGLVQAGGRLRLSCAASGSTFVRNAMGWYRQAPGKERELVAAITGTGDSTYYADSVKGRFTISRDNAKNTVYLQMNSLKPEDTAGYYCDANSDAYRYWYDYWGQGTQVTVSS”, the “polyreactivity (PSR sort gate)” value is given as “low polyreactivity”. Turning to “QVQLVESGGGLVQAGGRLRLSCAASGSTLNRNAMGWYRQAPGKERELVAAIRVSGGSTYYSDSVKGRFTISRDNAKNTVYLQMNSLNPEDTAVYYCGTRYVRARWYGYWGEGTQVTVSS”, the “polyreactivity (PSR sort gate)” value was “high polyreactivity”. With “QVQLVESGGGLVQAGGRLRLSCAASGSTLPANAMGWYRQAPGKERELVSAITITTDGSTYYADSVKGRFTISRDNAKNTVYLQMNSLKPEDTAVYYCAVDRYRYHNRKMGYWGQGTEVTVSS” the entry was “low polyreactivity”. “QVQLVESGGGLVQAGGRLRLSCAASGSTSLYYAMGWYRQAPGKEREFVAAITWSGGSTYYADSGKGRFTITRDNAKNTVYLQMNSLKPEDTAVYYCAGRSYGYSAGYYWGQGTQVTVSS”: the “polyreactivity (PSR sort gate)” value is “high polyreactivity”. “QVQLVESGGGLVQAGGRLRLSCAASGTIFYYNAMGWYRQAPGKERELVAVISQSGTSTYYADSVKGRFTNSRDNAKNTVYLQMNSLKPEDTAVYYCAADSRHGSIMDYWGLGTQVTVSS”: the “polyreactivity (PSR sort gate)” value is on record as “low polyreactivity”. Next, “QVQLVESGGGLVQAGGRLRLSCAASGTTFWNNAMGWYRQAPGKERELVPGISRSGGSTYYADSVKGRFTISRDNAKNTVYLQMNSLKPEDTAVYYCNKVNYAKRNYWGQGTQVTVSS”: “low polyreactivity”. With “QVQLVESGGGLVQAGGRLRLSCAAYGSIFDGYAMGWYRQAPGKERELVAAISRGGRTYYADSVKGRFTISRDNAKNTVYLQMNSLKPEDTAVYYCAAVTRLDGNMDYWGQGTQVTVSS” the entry was “high polyreactivity”; with “QVQLVESGGGLVQAGGRLRLSCADSGRTYRKYAIGWYRQAPGKEMDMVAAISWSGGSTYYANSVKGRFTISRDNAKNTVYLQMNSLKPEDTAVYYCAAVPVHTGSLYWGFTTGYDYWGQGTQVTVSS”, “low polyreactivity”; with “QVQLVESGGGLVQAGGRLRLSCADSGSTFVNSVMGWYRPAPGKERELVAGIRFRGGRTYYADSVKGRFTISRDNAKNTVYLQMNSLKPEDTAVYYCAKVQRQSVGFDYWGQGTQVTVSS”, “high polyreactivity”. As for “QVQLVESGGGLVQAGGRLRLSCAGSGRIFISNTMGWYRQGPGKERELVASISLRGGSTYYADSVKGRFTISRDNAKNSVYLQMNSLKPEDTAVYYCAAATLRQYDDEYWGQCTQVTVSS”, the “polyreactivity (PSR sort gate)” value was “high polyreactivity”.

With “QVQLVESGGGLVQAGGRLRLSCAPSGNIFRYYVMGWYRPAPGKEREFLAAITSSGGSTYYADSVKGRFTISRDNAKNTVYLKINSLKPEDTEVYYCAKDYWDPGWAEYDYWGQGTQVTVSS”, the “polyreactivity (PSR sort gate)” value is reported as “low polyreactivity”. Next, “QVQLVESGGGLVQAGGRLRLSCAPSGRTFKYYAMGGYREAPGKERELVASISSGGNTNYADSVKGRFTISRDNATNSVYFQMNSLKPEDTAVYYCAASTWQNRRSYYWGQGTQVTVSS”: “high polyreactivity”. For “QVQLVESGGGLVQAGGRLRLSCAPSGSTFHSNDMGWYRQAPGKERELVAAITWSGARTYYVDSVKGRFTISRDNAKNTVYLQMNSLKPEDTAVYSCAKKAPSDRNNYWGQGTQVTVSS”, the “polyreactivity (PSR sort gate)” value is recorded as “high polyreactivity”.

With “QVQLVESGGGLVQAGGRLRLSCPASGSIFGGYAMGWYRQAPGKERELVAGITRSGGSTYYADSVKGRFTISRYNAKNTVYFQMNSLKPEDTAVYYCAVEIQFYRSPRKVRSYDYWGQGTQVTVSS”, the “polyreactivity (PSR sort gate)” value is “low polyreactivity”. Consider “QVQLVESGGGLVQAGGRLRLSCPASGSTFYYYGMGWYRQAHGKERELVAAINCSCGTTYYADSVKGRFTISRDNAKNTVYLQLNSLKPEDTAVYYCAAAFYIYGVEGDYWGQGTQVTVSS”, for which the “polyreactivity (PSR sort gate)” value is “low polyreactivity”. For the sequence “QVQLVESGGGLVQAGGRLRLSCSASGRIFATYAMGWYRQAPGKERELVASISRRGGSTYYADSVKGRFTISRDNAKKTVYLQMNSLKPEDTAVYYCAKLFDTERGYNYWGQGTQVTVSS”, the “polyreactivity (PSR sort gate)” value was “high polyreactivity”.

Turning to “QVQLVESGGGLVQAGGRLRLSCSASGSTFGYYAMGWYRQAHGKQRELDASITWTGGSTYYADSVKGRFTISRDNAKYTVYLLMNSLKPEDTAVYYCAAQLEASYWLWTGYGYLGQGTQVTVSS”, the “polyreactivity (PSR sort gate)” value is “high polyreactivity”.

Turning to “QVQLVESGGGLVQAGGRLRLSSAASGIIFGNNAMGWYRQAPGKERELVAAIRYSGGRTYYADSVKGRFTISRDIAKNTVYLQMNSLKPEDTAVYYCNALRRGPDGSDYWGQGTQVTVSS”, the “polyreactivity (PSR sort gate)” value was “high polyreactivity”.

Take “QVQLVESGGGLVQAGGRLRLSSAASGRIFHSYAMGWYRQAPGKDRELVAGITSRGGTYYADSVKGRFTISRDNAKNTVYLQMNSLKPEDTAVYYCNADQALYSSGNKYDYWGQGTQVTVSS”: the “polyreactivity (PSR sort gate)” value is reported as “low polyreactivity”. With “QVQLVESGGGLVQAGGRLRLSSAASGSIFDLYAMGWYRQAPGKERELVASIRYSGGRTYYADSVKGRFTISRDNAKNSVYLQMNSLNPEDTAFYYCNRDGGYTFIMDYWGQGTQVTVSS” the entry was “low polyreactivity”.
